Results from paper PMC548358.

T1: Trx-mMUTYH wild type (Mus musculus, UniProt Q99P21 1-515)
T1 sequence: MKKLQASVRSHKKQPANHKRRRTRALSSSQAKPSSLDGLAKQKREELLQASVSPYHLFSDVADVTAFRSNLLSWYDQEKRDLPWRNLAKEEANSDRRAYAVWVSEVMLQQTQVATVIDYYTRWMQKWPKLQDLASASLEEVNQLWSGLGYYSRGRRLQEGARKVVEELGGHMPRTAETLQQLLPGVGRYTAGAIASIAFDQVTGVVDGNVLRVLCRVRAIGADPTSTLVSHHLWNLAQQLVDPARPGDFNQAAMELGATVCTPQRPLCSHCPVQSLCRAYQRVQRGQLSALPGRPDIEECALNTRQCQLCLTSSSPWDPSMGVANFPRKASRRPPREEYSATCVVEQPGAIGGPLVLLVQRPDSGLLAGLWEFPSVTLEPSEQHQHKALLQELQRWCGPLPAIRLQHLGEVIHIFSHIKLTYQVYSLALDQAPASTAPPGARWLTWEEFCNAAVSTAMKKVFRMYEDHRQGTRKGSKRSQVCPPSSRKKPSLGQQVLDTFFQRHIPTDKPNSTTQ

T2: Trx-mMUTYH(D207N) (Mus musculus, UniProt Q99P21 1-515, D207N)
T2 sequence: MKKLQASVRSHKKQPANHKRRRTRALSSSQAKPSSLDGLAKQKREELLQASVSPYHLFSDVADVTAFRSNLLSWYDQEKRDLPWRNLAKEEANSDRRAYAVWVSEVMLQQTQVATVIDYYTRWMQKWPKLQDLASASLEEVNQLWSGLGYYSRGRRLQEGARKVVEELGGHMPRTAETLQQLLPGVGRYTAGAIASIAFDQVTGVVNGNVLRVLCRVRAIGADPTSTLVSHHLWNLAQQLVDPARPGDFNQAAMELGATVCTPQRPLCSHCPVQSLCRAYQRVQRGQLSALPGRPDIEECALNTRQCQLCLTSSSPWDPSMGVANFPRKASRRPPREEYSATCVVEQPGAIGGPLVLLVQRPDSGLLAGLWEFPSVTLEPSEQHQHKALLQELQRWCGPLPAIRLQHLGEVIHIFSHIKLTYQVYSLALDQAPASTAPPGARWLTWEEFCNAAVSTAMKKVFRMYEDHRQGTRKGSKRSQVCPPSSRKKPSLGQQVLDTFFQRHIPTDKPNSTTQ


How the values were obtained:
Trx-mMUTYH wild type = target: T1, Trx-mMUTYH wild type; test: EMSA
Trx-mMUTYH(D207N) = target: T2, Trx-mMUTYH(D207N); test: EMSA

| Binder | binding result (Trx-mMUTYH wild type) | binding result (Trx-mMUTYH(D207N)) |
| --- | --- | --- |
| *A:GO (dsDNA, 8-oxoguanine at strand 2 position 16, opposite A20 of strand 1) DNA 1: AGCGGCCATCGATACCGTCAACCTCGAGGAATTCC DNA 2: GGAATTCCTCGAGGTGGACGGTATCGATGGCCGCT | binds | binds |
| *AO:G (dsDNA, 2-hydroxyadenine at strand 1 position 20, opposite G16 of strand 2) DNA 1: AGCGGCCATCGATACCGTCAACCTCGAGGAATTCC DNA 2: GGAATTCCTCGAGGTGGACGGTATCGATGGCCGCT | no binding | no binding |
| *AO:GO (dsDNA, 2-hydroxyadenine at strand 1 position 20; 8-oxoguanine at strand 2 position 16) DNA 1: AGCGGCCATCGATACCGTCAACCTCGAGGAATTCC DNA 2: GGAATTCCTCGAGGTGGACGGTATCGATGGCCGCT | binds |  |
| *AO:T (dsDNA, 2-hydroxyadenine at strand 1 position 20, opposite T16 of strand 2) DNA 1: AGCGGCCATCGATACCGTCAACCTCGAGGAATTCC DNA 2: GGAATTCCTCGAGGTTGACGGTATCGATGGCCGCT | no binding | no binding |
| *A:G (dsDNA) DNA 1: AGCGGCCATCGATACCGTCAACCTCGAGGAATTCC DNA 2: GGAATTCCTCGAGGTGGACGGTATCGATGGCCGCT | no binding | no binding |
